According to patent publication EP2386565A2, “Compounds and methods to inhibit or augment an inflammatory response” (Cambridge Enterprise Ltd., priority 1999, dated 2000):
Positions of bridges follow the written chain, without caps; N, C: chain ends. Non-standard residues stand in square brackets, D forms with d. No end group written: not given here. *: point of attachment. Biotin = O=C1N[C@H]2[C@H](CS[C@H]2CCCCC(=O)*)N1

Tests used:
[1] = target: chemokine receptors on THP-1 cells; experiment: binding to chemokine receptors on THP-1 cells; printed as Ka in concentration units
[2] = target: chemokine receptors on the surface of Jurkat cells; experiment: binding to chemokine receptors on the surface of Jurkat cells; printed as Ka in concentration units
[3] = target: chemokine receptors on THP-1 cells; experiment: estimated ka for binding to THP-1 cells (column 'average ED50', peptide 2 family footnote)
CCR5 (human), P51681 = experiment: not stated; given as affinity constant
CXCR4 (human), P61073 = target: T1, CXCR4 (human), P61073; experiment: not stated; given as affinity constant
T1 chain: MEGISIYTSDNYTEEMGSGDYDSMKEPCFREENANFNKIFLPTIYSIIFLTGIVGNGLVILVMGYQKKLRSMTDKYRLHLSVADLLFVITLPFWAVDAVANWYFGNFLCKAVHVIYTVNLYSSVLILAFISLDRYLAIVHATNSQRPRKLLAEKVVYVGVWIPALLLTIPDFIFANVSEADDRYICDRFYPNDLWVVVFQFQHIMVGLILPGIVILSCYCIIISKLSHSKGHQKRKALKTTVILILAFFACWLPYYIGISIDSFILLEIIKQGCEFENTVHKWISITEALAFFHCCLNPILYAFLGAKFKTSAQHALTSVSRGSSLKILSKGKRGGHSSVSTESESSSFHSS

[4] = target: T2, Duffy Antigen Receptor for Chemokines (DARC) (human), Q16570; experiment: Table 18, DARC binding (µM); method not restated
T2 chain: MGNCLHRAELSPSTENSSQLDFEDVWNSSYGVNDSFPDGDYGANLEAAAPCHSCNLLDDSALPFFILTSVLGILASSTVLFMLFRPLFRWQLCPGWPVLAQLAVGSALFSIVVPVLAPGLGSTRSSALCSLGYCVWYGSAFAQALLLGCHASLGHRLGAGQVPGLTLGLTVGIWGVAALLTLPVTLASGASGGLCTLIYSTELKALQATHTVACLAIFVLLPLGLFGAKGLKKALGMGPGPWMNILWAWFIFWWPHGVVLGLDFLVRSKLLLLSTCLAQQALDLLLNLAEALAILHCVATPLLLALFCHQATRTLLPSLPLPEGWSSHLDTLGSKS

[5] = target: T2, Duffy Antigen Receptor for Chemokines …; experiment: Duffy binding against the LFL peptide
[6] = target: T2, Duffy Antigen Receptor for Chemokines …; experiment: Duffy binding; kind of constant not named
[7] = target: T3, Duffy Antigen Receptor for Chemokines (DARC) (human) (UniProt Q16570); experiment: Table 18, DARC binding (µM); method not restated
T3 sequence (looked up): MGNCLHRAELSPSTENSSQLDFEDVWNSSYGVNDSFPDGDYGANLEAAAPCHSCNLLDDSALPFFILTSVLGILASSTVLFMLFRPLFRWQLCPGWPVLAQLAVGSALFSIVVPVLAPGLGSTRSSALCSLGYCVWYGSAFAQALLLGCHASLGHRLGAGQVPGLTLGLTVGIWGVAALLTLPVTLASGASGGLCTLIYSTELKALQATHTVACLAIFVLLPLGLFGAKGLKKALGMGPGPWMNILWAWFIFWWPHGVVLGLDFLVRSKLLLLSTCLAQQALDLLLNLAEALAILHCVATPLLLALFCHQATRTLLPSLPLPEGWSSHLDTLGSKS

[8] = target: T3, Duffy Antigen Receptor for Chemokines (DARC) (human); experiment: ka for binding to red blood cells divided by ka for binding to THP-1 cells
[9] = target: chemokine receptors on THP-1 cells; experiment: binding to chemokine receptors on THP-1 cells; given as association constant
[10] = target: T3, Duffy Antigen Receptor for Chemokines (DARC) (human); experiment: Table 18, DARC binding (µM); >100 = ED50 not determined
[11] = target: chemokine receptors on THP-1 cells; experiment: comparison of DARC binding and THP-1 cells
[12] = target: chemokine receptors on THP-1 cells; experiment: binding to THP-1 cells; printed as association constant in concentration units
[13] = target: T3, Duffy Antigen Receptor for Chemokines (DARC) (human); experiment: estimated ka for binding to red blood cells divided by average inhibitory ED50 in THP-1 migration
[14] = target: T3, Duffy Antigen Receptor for Chemokines (DARC) (human); experiment: DARC binding; method not restated
[15] = target: chemokine receptors on THP-1 cells; experiment: biotinylated peptide 2 on THP-1 cells, streptavidin-peroxidase, with and without 100 µM peptide 3; given as affinity constant

Sequence of CCR5 (human), P51681 (P51681 whole entry): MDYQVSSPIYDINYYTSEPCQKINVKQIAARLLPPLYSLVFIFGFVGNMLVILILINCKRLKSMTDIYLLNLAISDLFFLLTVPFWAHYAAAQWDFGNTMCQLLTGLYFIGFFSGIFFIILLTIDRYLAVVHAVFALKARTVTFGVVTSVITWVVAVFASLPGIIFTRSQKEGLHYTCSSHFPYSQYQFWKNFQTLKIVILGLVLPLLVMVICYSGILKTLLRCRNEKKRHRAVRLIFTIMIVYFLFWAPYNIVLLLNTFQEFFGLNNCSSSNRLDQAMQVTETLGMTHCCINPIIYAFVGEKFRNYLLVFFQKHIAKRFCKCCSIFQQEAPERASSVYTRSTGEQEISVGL

B1: Peptide 2(1-15)[MCP-1] (peptide)
peptide: SYRRITSSKCPKEAV
Binder B1 has a Kd [1] of 300 nM, a Kd [2] of 250 nM and a gp120 ED-50 (chemokine receptors) of 0.4 µM. The Kd [3] was 2000 nM.

B2: LRD peptide 2(1-15)[MCP-1] (peptide)
peptide: VAEKPCKSSTIRRYS
modifications: not fully specified (some residues)
B2 gave a Kd (CCR5 (human), P51681) of less than 100 nM, a Kd (CXCR4 (human), P61073) of less than 100 nM and a DARC binding [4] of 18 µM. The fold decrease in Duffy binding against LFL peptide 2 [5] was 100 fold, the Kd [6] was 25000 nM and the gp120 ED-50 (chemokine receptors) was 3 µM.

B3: Pep2(1-15)[SDF1] (peptide)
peptide: HLKILNTPNCALQIV
For B3, the DARC binding [7] was 19 µM, the Duffy selectivity [8] was less than 1 and the gp120 ED-50 (chemokine receptors) was 35 µM. The Kd [3] was 1000 to 10000 nM.

B4: Pep2(1-14)[MIP1α] (peptide)
peptide: DYFETSSQCSKPGV
Binder B4 has a Kd [9] of 100 to 900 nM, a gp120 ED-50 (chemokine receptors) greater than 100 µM and a Kd [3] of 1000 to 10000 nM.

B5: CPKEAV (peptide)
peptide: CPKEAV
For B5, the DARC binding [10] was greater than 100 µM.

B6: LRD Cys0Ser10Cys16 derivative of peptide 2(1-15)[MCP-1] (peptide)
peptide: [dC][dV][dA][dE][dK][dP][dS][dK][dS][dS][dT][dI][dR][dR][dY][dS][dC]
modifications: cysteine pairing not given here
With B6 the DARC binding [10] was greater than 100 µM.

B7: Leu4Ile11peptide 3(1-12)[MCP-1] (peptide)
peptide: EICLDPKQKWIQ
Work on B7 yielded a selectivity for receptors on THP-1 cells over DARC [11] greater than 20 fold.

B8: Pep2(1-16)[IL8] (peptide)
peptide: ELRVIESGPHCANTEI
In the case of B8, the Kd [3] is reported as 1000 to 10000 nM.

B9: Peptide 3(1-12)[MCP-1] (peptide)
peptide: EICADPKQKWVQ
With B9 the Kd [12] was 10000 nM and the Duffy selectivity [13] was 1.

B10: Peptide 3(3-12)[MCP-1] (peptide)
peptide: CADPKQKWVQ
For B10, the Duffy selectivity [13] was 1.21.

B11: Peptide 3(1-6)[MCP-1] (peptide)
peptide: EICADP
Work on B11 yielded a Duffy selectivity [13] of 5.32.

B12: Peptide 3(7-12)[MCP-1] (peptide)
peptide: KQKWVQ
With B12 the Duffy selectivity [13] was 2.94.

B13: Ser7peptide 3(1-12)[MCP-1] (peptide)
peptide: EICADPSQKWVQ
Binder B13 has a Duffy selectivity [13] of 2.

B14: Ser7Glu8Glu9peptide 3(1-12)[MCP-1] (peptide)
peptide: EICADPSEEWVQ
modifications: not fully specified
In the case of B14, the Duffy selectivity [13] is reported as 0.59.

B15: CRD-Cys13pep3[3-12] (peptide)
peptide: [dC][dQ][dV][dW][dK][dQ][dK][dP][dD][dA][dC]
modifications: disulfide 1-11; not fully specified
Work on B15 yielded a Duffy selectivity [13] of 8.82.

B16: Ser10 variant of peptide 2(1-15)[MCP-1] (peptide)
peptide: SYRRITSSKSPKEAV
Binder B16 has a DARC binding [14] of 20 to 100 µM.

B17: N-terminal biotin-labeled derivative of peptide 2(1-15)[MCP-1] (peptide)
peptide: Biotin-SYRRITSSKCPKEAV
B17 gave a Kd [15] of 250000 nM.
